Source: the DeepSol protein solubility set

assay: soluble on expression in E. coli; label from the status in PepcDB or PDB records

Sequence	soluble on expression in E. coli
MFSYSSSDWQRRFDEPEKPSRIIAHHDERGPFAKDRARVLHSAALRRLADKTQVVGPRDGDNPRTRLTHSLEVAQIARGIGTGLGLDADLCEMAGLTHDIGHPPYGHNGEKALAEIAQDCGGFEGNAQTLRILSKLEPKIVDDHDQSYGLNLTRAALDAACKYPRTKTNPDGSVNKKYGCYDEDAHILQWVRQGHEDTSACVEAQAMDFSDDIAYSVHDVEDGIVSGRVHLGVLWDFVELAELAEKGARAFGGTPEALVDAADHLRELPIISAAADFDGSLRGYVDLKAMTSQLVGRYVGAVIEASRAANPTGVFGRSTGQVVVPDQVLAEVTLLKTIAVLYVMDDPTHRQRQDRQRERIYRVYDYLVAGGRGALDPMFRLWWEQAESEAQRQRVIIDNISSMTESRLERVAKQSAELSSFMG	not soluble
MSLLAGVKLEKRDKTLVDATEALAGKAVGFYFSAHWCPPCRGFTPILKDFYEEVEDEFEVVFVSFDRSESDLKMYMSEHGDWYHIPYGNDAIKELSTKYGVSGIPALIIVKPDGTEVTKDGRNDVQNGKDPKATVAKWKA	not soluble
MAHHHHHHMSSNDGLSEDTVMYIKDNNIGQLMEYILRCIITDKPTKPLEYVHELTASPLPPRVVLAGPPASGKGTQARHICSYYKRAIGKKPVHVSSGDLLRAEVAQGTHLGKIAENFMQRGELVPDSLIISIIRNRLTQEDAVMNGWLLDGFPRTRSQAIALDAAGLCPRIFVVLDTPDDVLFGRVEGRRTDPVTGIIYHLKYNPPPENDTALLERLQHRDDDTREVLGPRLETYHSMVEGLLDYYGSIMYHVDGNRPEAAITKDITEYLQNHNVA	soluble
HVKVGFSPEKLRPYTTMPADFQQFWENQKAELAKFPLTYTKEHVKKYSTDQIDCYLIKLQVNQRGQSIYGYLFYPKKEGKYPVVLCPPGAGIKTIKEPLRHKYYAEQGCIRFEIEIHGLNPEMSEEEFKEISAAFNGRENGYLSNGLDSRDNYYMKRVYLACVRSIDLLTSLPEWDGKNVVVQGGSQGGALALVTAGLDQRVTACVANHPALSDMAGYKAGRAGGYPHFFRNTVDMDTPEKIRTMAYYDVVNFAQLIRADTYMTWGFNDNVCPPTTSYIVYNVLNCPKEALITPINEHWTSSDTEYGHLLWIKKHLK	not soluble
MGSDKIHHHHHHMTAAESIYALYPYIQHAQLLAHNEKIKQDNVIFTYTVSLSYDEISLRVLHVDSDNTKHIHIQVLFEINQGKIYVKDLYHNSGAAFELLTSIKSNPSLHQASFAQNSVPASWLSRDILNSLAIADRIAQKAINQYAGDDYRPGYYSQIECSGTQLILSQINHMNSRSLSHKENYSLRNLTFTIPLNGKADSEMLYNTDRIGIMNINFSDHSSANNRSAGDAVKNQIAEEIRLYQNDVE	not soluble
MGSDKIHHHHHHMPRQMRPDIADIRTGADLRQWYWRKDELVAHARTLGLKRSGAKFTILDRIAHFLDTGARDLPEAPAPKPTSDFDWHSAKLTPDTILTDSYKNTQNVRRFFKAQLGPRFAFSIPLMAWLKENSGKTLSDACAVWRDLQAERRRPGWQSDIKGHNQFNQYTRDFLAAHPDLGMDDVRRVWARKIQQPSPDGRHIYEPSDLDL	not soluble
MGHHHRRDTERVCIRTRKIYDWVTRQVDVPLRSFSGEDLEAIFPMDHCRREGTICDFLGAQHTNPQHLTIRCFLTDADGNPIDSVVDQDALICQEITQPNGRQSVNVTLPSGETVTLQKVKALIKGHVVVQIVSPAGTVICQSKPIPFATAQTFILCAPEGTQLNCHISFFECDTSLVCTDNFAQLDVSITLCLEVQVEADVKIEVEARFCQPREELAEAVLCPTTKFPPQCPDVFPAM	not soluble
MAMDLRDPNVWISHLLENLPEEKLASALKDDNPDWEYIDGEIVKLGSLAHAQLDIPELQRRGLQLLASESKDFRLLAHLLRTLQHAGDPLLALHLLTLYVEHYWTVAAPQNMAHKKRFASQIIKRFETVLKAFHKTLPQRSAILCWVSWRNWRSAGSHITSRNWHRLPMIFLPCTSVRLIVRLLLRSPLRRPPVVHHKPPSRLKAA	not soluble
MSVERSLEAWEEVQRHGQDLADRLAQGFNGLIQINPPSFPSKLFDLEFSSQHFGIRDSRFSIHQPINGVSAILDIGNKIGQAGVDFGSGLNVMVQQFFRRLPVPFRHDENVFVSTERDTVTRSHRAYVDTKENSAFSKTDTASSGTVYEEKVTEFDLRTIGLHRRAKGTVELSSSYETRTSSMEHSLAARGDLWRVEASTSNSPVRDDSSSLFLLQLGPLLFLRDSTLLLPVHLSKQHLLWYGYDRKKGMHSLCPALWSKHRRWLMMSMLCLNPLDCSFVDLQFPNGQLTYVSGEGLTTSVFVPLCGGLLQAQGQYPGDMRFSFSCKSKQGTRITPMINWPDKSLALGVSQALAWRRSGVMLKPAIQLSVCSTFGGSNPGIKTEVIQSLNDNINMICGCAFTAHPSTFASVSFGRSKWNGNIGRTGIVVRADTPLPNVARPSFSIQINNAFEF	soluble
MVRNLVIDITKKPTQNIPPTNEIIEEAITELNVDELLDRLFEKDESGEVITPSRIAKMLEEKAFEIYKEYEKQVREAYLSAGYSREKLEQSFQQARFSRGGKAFEIIFTKLLNKFGIRYEHDRVIKIYDYITEGEKPAFIIPSVRTFLNDPSSAILITVKRKVRERWREAVGEAQILRNKFGDEINFWFVGFDEEFTIYSAIAMLDNGIDRVYVIDGRYDSLIEEIKRISDPNFNEDKYIQKIRRFSDIFDDIIQFLNKHGNKKRGKQLTLV	soluble
MGSDKIHHHHHHMTTTNGIDGSYYYENRPKEQSNSGILGKDDFLRILIAQLQYQDPLNPMDDREFIAQMAQFSSLEQMTNMNSAIQQFVKQQTSQTLVQHSELIGKRVTWKRIIDIDEYRQKEELVENTVTSVRLETNGNVSIQLDSGRWISADQLVQVSGKTNHQEEAEGDVGDNAPDEQEG	not soluble
MILPNPLARRLFLHLHALAEPPTGPAKGEALLALIDRLGFVQIDSISTVARAHHMILFARRQAYRPEALDRLLAQRHLFEHWTHDAAVIPARFFPFWHHRFRRDRPRLLARWRGWQREGFEEQFDAVLARIAESGPVSAAEVGEEEERGTGGWWDWHPSKAALEYLWRVGELSITRRDSFRKVYDLTSRVIPSGWLAMDPGDAATIHWACSEALDRLGFATSGELAAFWAAASPAEAQAWCHDALARGEIVEVRVEGADGSLRRSYARPEVAALAEAAPDPSPRLRILSPFDPVLRDRARAERLFGFRYRIEVFVPEAKRTYGYYVFPILEGDRLIGRIDMRAHRESGSLRVRALWPEAGVRLGSRRLGRLGAELDRLAQFAGCDQVKFEPDWLRETLPEGSVAGDLEHHHHHH	not soluble
GPGSMGTRQSSASAAPAPQASNGALHLNKLNVPTPPRIAATESPFGSNTPLAKTPTPTAATATATAAVSGEHAKRFQEALRVDSVDMALLRELSWQGCPVALRYEAWMFLTGCWTAQAATRQATVLRRRVEYAAYIHSSYGIVDWDAVCAMVDSGVDTAVHRSTLKLLEHTADAPQVAPPSGTSHSLLRVAPLTTGDSTAMAAKEAAAALPPSLSQRPDGRQSASLPLEDVRSRLPQNTSGSDAPQPSQLSPPQSADIRSASPSLGIVPAPSDSSFRASASAGFTDTAGTGPASHPSIFAPPLPGFATLGLSNVVAATAAPPAASGGAGGATGHQLSASTMLGSKELQTLKQIRKDIPRMSGGHCYLRHPRVQGSIERILFIWSLRHPACGYVQGMNDLVVPFMGVVLGYRFCPTHSVTELHAYTEDIFDDLWSVSAVSVTQWINEVEADVYWMTSYLLNTMQDNYTSSHAGITSMMRHLAAVVQVADPPLYHRLVNVLQLHFEQFSFRWMNCLLIRELTETQSLRLLDAYLSDEERRWSVTHVYVCAALLLRWGSQLMAFCEDYISVMKLLQEPPTEQLSLRDMQDVLSEGFVLQNLYEASLKRLSTTAE	not soluble
MSLVDDPLIVVNSEKVDKEYAELLMDKYYSKRTLEINSDNEIVVTENIIYNVPALDEFEINDGKGNLLVEFTKSGETVTYKNFEYEEELESDDEGDEVTFMGKTYKLIEYDEDEKIVLGNKVEDTETTEEFSYDAFTFKIIGMDSTGQILVSVYEGSDRIENVKMYPDDTYFVSGSKISIYYDEYMESGDTPYFFFEIYDSLEIEDGETISGYSNIDTDLDGKRINLEYESPKSLSQNFELLNYKVELTDVSDEDLTVFFTVTQNLNYEFDMDEGTKYFGNNIFAVKIENDEDDDSDDESYLYKNNKKYSEIVDYQGSVQLVDQDELLSASSDLILIGGPVSNKVTESIQNSLSVEVTNDYPGEGKGIIQTITNPNNDESTILVLAGSDRDGTKACVLALNQGLYSGSGNLVVKLTGDDSVSVEGHHHHHH	not soluble
MGSDKIHHHHHHMSIKILQPGLFSTVQDLGRKGYEHIGFSGAGAMDQFSFKVAQLLINNDGPAIEYTLIGPTIQFNTQNTFVITGGSVNASLNNKTISMNSVILAEKGDILKIGAITKGARGYLTFGHSINVPPIAESYATHTRSSIGGFKGRKLLANDVITVKINNDFKENIGKTIHLQDDLLPENNIIHILQGPQFEAFSEEARAKIVNHPYLITEQSDRMGYRLEGDSVAPINQADIISEPVALGSVQVPNDGQPIILLNDKQTIGGYTKIATVCKFDLPKLAQMKPQDTIQFKWISFQEAVDKNREQMSLFNEILKSHQKTPIFDTSSLRHTSKKLATILKGDL	not soluble
MGSDKIHHHHHHMNLTGCGEKFYQHCKVILSEFEWATYEISYNQQYPEGELKLNTPMSFSNIFLQHIISDFIEKYPSIKIDLFMTDQLLDVNQHKFDLTIRLDGSAPSLANSKILNTYQRYLYATPEYFNQHGLPTSLEELKEHKFLIYYQDSRHKKLIFQKDQKEVSFNCFPVMTCNNGELLLDMCLKDHGIVFLPEFIAEPYYKEGKLQKCLEDYTSQPLHLYVTWPNRKILSKKVKLFIDFLTHQIIPIK	not soluble
MRLIVVGIAEDITEKKQLETELQRLATTDVLTQSSNRRHFFECANREFEQARLQGSSLAFLLLDIDDFKVINDTYGHPEGDIVLQRIAESGRAALRRGDLFGRIGGEEFAAVFPGCTADMARQVAERLQREIQRQNFSHQGQTFTITVSQGLTGLLAEDESLDNLFARADSAMYEAKRQGKNRIITGLEHHHHHH	not soluble
MGSDKIHHHHHHMSIHPALESVGQLFGANLIFRVPRYQRYYAWDAEQIGDFLADLELCLKARAGGNRREHFFGGLVTVRTDVEGSSRQNMEVIDGQQRLASFSMLAAQLRNAAVQLAESVDAAVPDNPKEFLLEFAKTLKAEFERYKDKIKLQVVEIDRLELSKPDLIFFKDLVEGRNPTPSRMSHRLLKQAWDRIGAKLAQIVASENTDVEKAQALSLVDTVMEEDWNPHPHDH	not soluble
MKLKSNNIYEKMNQYSVVGLSLAVIRDGKLDETAAFGTLESGTNRTVTIDSIFNSCSISKFITTILILTLSDLKIVHLDEDVNDRLTSWNIPTNLFTSQKKVTLRNLLSHQSGIIDPPNSFEHYLLAQGQPNMSELLAGKTLYCSVPIEVTYKPESEFHYSDANFCIIEILLEDITGKPFNLLLEESIFQPLQMKNSTIFSPEDIDKTDAFACGHNKDGTVTNEKYPFYPFAAASGIWTTPTDLSALVIEIIHSLQGKGKLKLSQKTVQDMISPQGCSKWTGLGVFLDDLNEDLQIYSLGWGVGFQCMMICYPYRGNGAIIMTNADLGVHQMEGIIGDVLKTLSL	not soluble
